Results: US6022856

Biological target: type-2 neurotensin receptor of rats (rNT-R2) (rat)
Experiment: displacement of 0.2 nM 125I-neurotensin from COS-3 cells transfected with rNT-R2

neuromedin N (from UniProt P30990) (peptide)
IC50: 5.1 nM
